Experiment [1] deals with anti-GCSF monoclonal antibody (clone: BVD13-3A5, BioLegend). As to the kind of experiment: sandwich ELISA, BVD13-3A5 coated, detection anti-GCSF 3D1-HRP; analyte 125 ng/mL, replicate #2.
Experiment [2] has the same target. As to the kind of experiment: sandwich ELISA, BVD13-3A5 coated, detection anti-GCSF 3D1-HRP; analyte 500 ng/mL, replicate #2.
The target is the same in experiment [3]. Description: sandwich ELISA, BVD13-3A5 coated, detection anti-GCSF 3D1-HRP; analyte 31.25 ng/mL, replicate #2.
For experiment [4] the target is unchanged. Description: sandwich ELISA, BVD13-3A5 coated, detection anti-GCSF 3D1-HRP; analyte 250 ng/mL, replicate #1.
The target is the same in experiment [5]. Description: sandwich ELISA, BVD13-3A5 coated, detection anti-GCSF 3D1-HRP; analyte 31.25 ng/mL, replicate #1.
For experiment [6] the target is unchanged. Description: sandwich ELISA, BVD13-3A5 coated, detection anti-GCSF 3D1-HRP; analyte 62.5 ng/mL, replicate #1.
For experiment [7] the target is unchanged. Description: sandwich ELISA, BVD13-3A5 coated, detection anti-GCSF 3D1-HRP; analyte 125 ng/mL, replicate #1.
Experiment [8] concerns the target T1, GCSF receptor on mouse NFS-60 cells (mouse (NFS-60 cells)) (UniProt P40223).
T1 sequence (looked up): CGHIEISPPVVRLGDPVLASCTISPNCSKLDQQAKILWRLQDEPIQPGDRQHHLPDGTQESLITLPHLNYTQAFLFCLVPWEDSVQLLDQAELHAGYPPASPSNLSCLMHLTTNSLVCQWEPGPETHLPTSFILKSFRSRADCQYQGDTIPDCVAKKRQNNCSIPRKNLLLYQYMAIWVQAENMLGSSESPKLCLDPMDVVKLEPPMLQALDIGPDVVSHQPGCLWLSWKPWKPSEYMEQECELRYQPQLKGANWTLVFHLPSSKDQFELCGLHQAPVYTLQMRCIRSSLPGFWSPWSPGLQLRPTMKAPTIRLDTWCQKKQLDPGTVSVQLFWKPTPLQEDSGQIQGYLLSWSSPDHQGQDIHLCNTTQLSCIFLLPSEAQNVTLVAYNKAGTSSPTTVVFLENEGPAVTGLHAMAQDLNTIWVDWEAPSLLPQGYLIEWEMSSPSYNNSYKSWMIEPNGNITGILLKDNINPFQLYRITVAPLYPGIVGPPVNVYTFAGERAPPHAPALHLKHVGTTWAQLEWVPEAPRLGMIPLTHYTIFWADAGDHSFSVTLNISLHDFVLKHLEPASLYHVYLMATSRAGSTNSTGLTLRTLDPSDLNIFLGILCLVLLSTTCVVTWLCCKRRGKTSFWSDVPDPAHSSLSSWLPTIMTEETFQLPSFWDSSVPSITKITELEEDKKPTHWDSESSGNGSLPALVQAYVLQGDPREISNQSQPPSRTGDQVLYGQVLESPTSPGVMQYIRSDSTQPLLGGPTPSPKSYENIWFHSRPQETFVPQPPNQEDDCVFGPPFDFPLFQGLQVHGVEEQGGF
Description: cell-based or functional assay.

The target of experiment [9] is anti-GCSF monoclonal antibody (clone: BVD13-3A5, BioLegend). Description: sandwich ELISA, BVD13-3A5 coated, detection anti-GCSF 3D1-HRP; analyte 62.5 ng/mL, replicate #2.
For experiment [10] the target is unchanged. As to the kind of experiment: sandwich ELISA, BVD13-3A5 coated, detection anti-GCSF 3D1-HRP; analyte 250 ng/mL, replicate #2.
Experiment [11] has the same target. Description: sandwich ELISA, BVD13-3A5 coated, detection anti-GCSF 3D1-HRP; analyte 500 ng/mL, replicate #1.
The next experiment relates to mouse NFS-60 cells. Description: In vitro proliferation assay (MTT). The class given is cell-based. Particulars: for EC50: NFS-60 cells, 72 hours, MTT, read-out: EC50 of stimulatory (proliferative) activity. The procedure: FIG. 3 illustrates the PARylated PARP1-GCSF conjugate stimulates proliferation of mouse NFS-60 cells in a dose-dependent manner. Cells were treated with various concentrations of PARylated PARP1, PARylated PARP1-GCSF conjugate, and human GCSF for 72 hours. Cell viabilities were quantified using MTT assays.
Cell lines. Mouse NFS-60 cells were grown in RPMI 1640 medium containing 10% FBS, 0.05 mM 2-mercaptoethanol and 62 ng/mL human recombinant macrophage colony stimulating factor (M-CSF). Expi293F cells were purchased from Thermo Fisher Scientific and cultured in Expi293F expression medium with shaking at a speed of 125 rpm at 37° C. and 8% CO2.
In vitro proliferation assays. Mouse NFS-60 cells were cultured in RPMI 1640 medium containing 10% FBS, 0.05 mM 2-mercapoethanol and 62 ng/ml human recombinant M-CSF. To examine the proliferative activity of PARylated PARP1-GCSF conjugate, cells were washed three times with DPBS buffer, resuspended in RPMI-1640 medium with 10% FBS and 0.05 mM 2-mercapoethanol, plated in 96-well plates (1.5×10^4 cells per well) with various concentrations of GCSF, PARylated PARP1, or PARylated PARP1-hG-CSF conjugate, and incubated for 72 hours at 37° C. with 5% CO2. Cells were then treated with 0.5 mg mL^−1 3-(4,5-dimethylthiazol-2-yl)-2,5-diphenyltetrazolium bromide (MTT) solution for 3 hours at 37° C., followed by additions of 100 μL of lysis buffer (20% SDS in 50% dimethylformamide, 0.5% (v:v) 80% acetic acid, 0.4% (v:v) 1 N HCl, pH 4.7) and incubated for 4 hours at 37° C. Fluorescence intensity measured at 595 nm is proportional to cell viability.

In experiment [12] the test system is neutrophil populations in blood. As to the kind of experiment: In vivo efficacy: neutrophil populations in blood by flow cytometry after single s.c. dose. Further details: species or system CD1 mice. Particulars: for neutrophil percentage reached after sharp increase: within 24 hours, from approximately 10%. The source says: FIG. 4A-C illustrates in vivo efficacy of the PARylated PARP1-GCSF conjugate. Single doses of GCSF (1.25 nmol), PARylated PARP1 (2.5 nmol) and PARylated PARP1-GCSF conjugate (0.5 or 2.5 nmol) were administrated by subcutaneous (s.c.) injections into CD1 mice (five per group). Blood was collected and analyzed for neutrophil populations by flow cytometry using fluorophore-labeled anti-mouse CD45, anti-mouse CD11b, and anti-mouse Ly-6G antibodies. (A)-(B) Neutrophil percentages in mouse blood after the single-dose treatments. For (B), 1=PBS; 2=GCSF 1.25 nmol; 3=PARylated PARP1 2.5 nmol; 4=PARylated PARP1-GCSF 0.5 nmol; 5=PARylated PARP1-GCSF 2.5 nmol. (C) Representative flow cytometric analyses of mouse neutrophil populations after treatments with 1) PBS; 2) GCSF 1.25 nmol; 3) PARylated PARP1 2.5 nmol; 4) PARylated PARP1-GCSF 0.5 nmol; and 5) PARylated PARP1-GCSF 2.5 nmol conjugate. ns=not significant, p>0.05; *, p<0.05; **, p<0.01; ***, p<0.001; ****, p<0.0001. Data for the 5 conjugates are listed for days 0, 1, 5, and 11.
Animals. Female CD-1 IGS mice (22-24 g) were purchased from Charles River Laboratories (Wilmington, MA). All animal studies were performed under a protocol approved by the Institutional Animal Care and Use Committee of the University of Southern California.
In vivo efficacy of the PARylated PARP1-GCSF conjugate. Single doses of GCSF (1.25 nmol), PARylated PARP1 (2.5 nmol), or PARylated PARP1-GCSF conjugate (0.5 or 2.5 nmol) were administrated by subcutaneous (s.c.) injections into CD1 mice (5 per group). Blood was collected at day 0 through day 13 and analyzed by flow cytometry to measure percentages of neutrophil populations in white blood cells using pacific blue anti-mouse CD45 (clone: 30-F11, BioLegend), APC anti-mouse CD11b (clone: M1/70, eBioscence, Carlsbad, CA), and FITC anti-mouse Ly-6G antibodies (clone: 1A8, BioLegend).

For the molecule “Recombinant human granulocyte colony-stimulating factor (GCSF) with His6 tag, expressed in Expi293F cells (from UniProt P09919 31-207) (ligand)”, the Fluorescence Intensity was 42700 in experiment [1]; 76500 in experiment [2]; 20700 in [3]; 62200 in [4]; 19900 in experiment [5]; 29400 in experiment [6]. The Fluorescence Intensity amounted to 42300 in experiment [7], 29800 in experiment [9], 60700 in experiment [10] and 75700 in experiment [11]. Besides, in experiment [8], the EC50, proliferation of mouse NFS-60 cells (MTT, 72 hours) was determined as 0.0248 nM.

For the molecule “PARylated PARP1-GCSF conjugate: Auto-PARylated human PARP1 (3′-azido NAD+-derived PAR polymers) click-conjugated with alkyne-functionalized human GCSF, 14.0±0.5 GCSF molecules on average”, the EC50 in the experiment on mouse NFS-60 cells is 0.00602 ± 0.00093 nM. Further, the “fold increased potency versus recombinant human GCSF” value in the experiment on mouse NFS-60 cells (ratio of EC50, NFS-60 cells) is “approximately 4 fold”. Also, in [12] (conjugate 2.5 nmol), the “duration of sustained elevated levels of neutrophil” value is 11 days. Moreover, the “neutrophil-stimulating activity compared with 1.25 nmol GCSF” value in [12] (conjugate at a dose of 0.5 nmol) was “comparable”. The “neutrophil percentage reached after sharp increase” value in experiment [12] is on record as approximately 50%.

As to “PARylated PARP1-GCSF conjugate (from UniProt P09874 1-1014)”, the Fluorescence Intensity in experiment [1] is 44700; in experiment [2], 64900; in [3], 15900; in experiment [4], 49400; in [5], 15900; in [6], 22800. For the same molecule, the Fluorescence Intensity in experiment [7] stood at 32100; in experiment [9], 20700; in [10] it was 49200; in [11], 64500. The EC50, proliferation of mouse NFS-60 cells (MTT, 72 hours) in experiment [8] came to 0.00602 nM. The fold potency against free GCSF, proliferation of mouse NFS-60 cells in [8] was 4 fold.

B1: GCSF: Recombinant human granulocyte colony-stimulating factor (His6) expressed in Expi293F cells (protein)
chain: TPLGPASSLPQSFLLKCLEQVRKIQGDGAALQEKLVSECATYKLCHPEELVLLGHSLGIPWAPLSSCPSQALQLAGCLSQLHSGLFLYQGLLQALEGISPELGPTLDTLQLDVADFATTIWQQMEELGMAPALQPTQGAMPAFASAFQRRAGGVLVASHLQSFLEVSYRVLRHLAQPHHHHHH
Regarding B1, the EC50 in the experiment with mouse NFS-60 cells stood at 0.0248 ± 0.00321 nM. For the same molecule, the “neutrophil percentage reached after sharp increase” value in [12] is approximately 50%.

The record behind these values is US20240148878A1, “THERAPEUTIC POLY-ADP-RIBOSE POLYMER-GCSF CONJUGATES” (UNIVERSITY OF SOUTHERN CALIFORNIA, priority 2022, published 2024).
